From PMC3138754, “α-SNAP Prevents Docking of the Acrosome during Sperm Exocytosis because It Sequesters Monomeric Syntaxin” (PLoS ONE, 2011)

Target: T1, syntaxin1 (1–262), cytosolic domain (UniProt P32851 1-262)
T1 construct: syntaxin1 residues 1-262 (cytosolic domain); pET28a plasmid from D. Fasshauer; rat syntaxin 1A is surmised from the source of the plasmid; also called syntaxin 1–262; cytosolic domain of syntaxin1; source: E. coli BLR(DE3), pET28a plasmid, extracted in 6 M urea, purified on Ni-NTA with renaturing during the washing step
Assay: co-IP; 0.9 µM syntaxin 1-262 with 1, 2.5 or 5 µM α-SNAP wild type or M105I, NSF and ATP omitted; anti-syntaxin immunoprecipitation, anti-α/β-SNAP blot, densitometry normalised to syntaxin
Details: both partners purified

fold amount recovered with syntaxin against the wild type: 2 fold
B1: α-SNAP-M105I (natural protein, UniProt P81125 1-295, looked up)
chain: MDNSGKEAEAMALLAEAERKVKNSQSFFSGLFGGSSKIEEACEIYARAANMFKMAKNWSAAGSAFCQAAHVHLQLQSKHDAATCFVDAGNAFKKADPQEAINCLIRAIEIYTDMGRFTIAAKHHISIAEIYETELVDIEKAIAHYEQSADYYKGEESNSSANKCLLKVAGYAAQLEQYQKAIDIYEQVGTNAMDSPLLKYSAKDYFFKAALCHFCIDMLNAKLAVQKYEELFPAFSDSRECKRIKKLLEAHEEQNVDSYTEAVKEYDSISRLDQWLTTMLLRIKKTIQGDEEDLR
notes: α-SNAP with the point mutation M105I that occurs in hyh mice; pET28 plasmid from P. Hanson; called one of the three full length proteins; also called M105I mutant; the mutant of the hyh mouse; source: E. coli BLR(DE3), pET28 plasmid, purified (Ni-NTA, native conditions)
